The target of assay [1] is T1, recombinant human Trop-2/Fc/His fusion protein (manufactured by R&D) (human, UniProt P09758 27-274, limits assumed).
T1 construct: Bought reagent; also called Trop-2/Fc/His chimeric protein; recombinant Trop-2
T1 sequence: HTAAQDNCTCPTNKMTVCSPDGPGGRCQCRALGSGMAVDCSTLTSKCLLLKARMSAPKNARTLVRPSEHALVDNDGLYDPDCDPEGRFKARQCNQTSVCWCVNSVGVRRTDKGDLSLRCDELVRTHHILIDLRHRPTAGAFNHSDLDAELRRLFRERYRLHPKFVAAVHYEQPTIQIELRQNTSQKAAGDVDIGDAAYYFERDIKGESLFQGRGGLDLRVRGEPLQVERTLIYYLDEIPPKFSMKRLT
The assay is described as follows: competition binding ELISA on immobilised Trop-2/Fc/His; cAR47A6.4.2 varied, competed antibody MOv16 fixed at 0.3 µg/ml [b]. The method, then: (§1) Into a 96-well ELISA plate (manufactured by Greiner), 2 μg/ml of a recombinant human Trop-2/Fc/His chimeric protein (manufactured by R&D) was dispensed at 50 μl/well, and allowed to stand at 4° C. overnight for immobilization. After washing the plate with PBS, BSA-PBS was added thereto at 100 μl/well and allowed to stand at room temperature for 1 hour for blocking the active groups.
(§2) After washing the plate with Tween-PBS, a peroxidase-labeled rabbit anti-human IgG antibody (manufactured by American Qualex) was added at 50 μl/well as the second antibody and allowed to stand at room temperature for 1 hour. After washing the plate with Tween-PBS, the ABTS [2,2-Azino-bis(3-Ethyl benzothiazol-6-Sulfonic Acid)ammonium)] substrate solution [1 mmol/l ABTS, 0.1 mol/l citric acid buffer (pH 4.2), 0.1% H₂O₂] was added at 50 μl/well for color development, and the chromogenic reaction was stopped by adding a 5% SDS (Sodium lauryl sulfate) solution at 50 μl/well. Thereafter, the value of the absorbance of OD415 nm was measured by a plate reader Emax (manufactured by Molecular Devices, LLC.).

Assay [2] deals with T1, recombinant human Trop-2/Fc/His fusion …. Nature of the assay: competition binding ELISA on immobilised Trop-2/Fc/His; cAR47A6.4.2 varied, competed antibody YY-01 fixed at 0.3 µg/ml [d]. Here is the method: as §1, §2
The target in assay [3] is T2, Trop-2/FLAG/Fc, fusion protein of Trop-2 extracellular region, FLAG tag and Fc (human).
T2 construct: Expressed in HEK293F; The encoding DNA carries a secretion signal
The assay is described as follows: Western blot, cAR47A6.4.2 as primary antibody, Trop-2/FLAG/Fc in lane 1, non-reducing and reducing SDS-PAGE [b]. The method, then: (§3) Each protein of Trop-2/FLAG/Fc, Mutant A, Mutant B, or Mutant C prepared in this Example 2 was electrophoresed under reducing condition (treatment of samples in the presence of 10 mmol/l DTT at 95° C. for 5 minutes) or non-reducing condition (treatment of samples in the absence of DTT at room temperature for 10 minutes) by an SDS-PAGE method. The proteins in the gel were transferred to polyvinylidene difluoride (PVDF) membrane at 200 mA for 1 hour using a semi-dry method.
(§4) After the blocking of the PVDF membrane was carried out using PBS containing 5% BSA at room temperature for 1 hour, the PVDF membrane was soaked in the primary antibody solution which was prepared with TBST [an aqueous solution which was prepared by diluting Tris buffered saline (10× concentration) (pH 7.4) manufactured by Nakarai Tesque Inc.) ten-fold and further adding 0.1% concentration of 0.05% polyoxyethylene (20) sorbitan monolaurate (manufactured by Wako Pure Chemical Industries, Ltd., equivalent to ICI Inc.'s trademark Tween 20)] comprising 0.1% BSA to react for 1 hour at room temperature or overnight at 4° C.
(§5) Using the imaging system LAS4000 mini (manufactured by Fujifilm), the luminescence images were obtained. […]

Assay [4] concerns the target T3, Mutant B, Trop-2 extracellular region lacking domain I and domain II, fused to FLAG tag and Fc (human).
T3 construct: Expressed in HEK293F
The assay is described as follows: Western blot, cAR47A6.4.2 as primary antibody, Mutant B in lane 3, non-reducing and reducing SDS-PAGE [b]. Here is the method:
as §3, §4, §5
A general note: Immunoblotting shows a protein as a band on a membrane.

Assay [5] has as its target T4, Mutant A, Trop-2 extracellular region lacking only domain I, fused to FLAG tag and Fc (human).
T4 construct: Expressed in HEK293F
Nature of the assay: Western blot, cAR47A6.4.2 as primary antibody, Mutant A in lane 2, non-reducing and reducing SDS-PAGE [b]. Here is the method: as §3, §4, §5

One molecule from patent US20120237518A1 (Kyowa Kirin, published 2012) can be followed below.

T3 sequence (chain, as listed by the source mutant limits assumed): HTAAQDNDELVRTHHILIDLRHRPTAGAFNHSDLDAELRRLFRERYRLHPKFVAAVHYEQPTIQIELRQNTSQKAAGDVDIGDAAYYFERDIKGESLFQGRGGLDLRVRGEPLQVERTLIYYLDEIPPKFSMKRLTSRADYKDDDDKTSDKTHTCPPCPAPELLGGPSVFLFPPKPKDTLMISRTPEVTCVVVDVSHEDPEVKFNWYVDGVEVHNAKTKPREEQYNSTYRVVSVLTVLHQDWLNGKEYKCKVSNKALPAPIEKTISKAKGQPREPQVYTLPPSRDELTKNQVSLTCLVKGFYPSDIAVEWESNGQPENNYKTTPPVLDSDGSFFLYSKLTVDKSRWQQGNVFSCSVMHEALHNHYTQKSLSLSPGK
T4 sequence (chain, as listed by the source mutant limits assumed): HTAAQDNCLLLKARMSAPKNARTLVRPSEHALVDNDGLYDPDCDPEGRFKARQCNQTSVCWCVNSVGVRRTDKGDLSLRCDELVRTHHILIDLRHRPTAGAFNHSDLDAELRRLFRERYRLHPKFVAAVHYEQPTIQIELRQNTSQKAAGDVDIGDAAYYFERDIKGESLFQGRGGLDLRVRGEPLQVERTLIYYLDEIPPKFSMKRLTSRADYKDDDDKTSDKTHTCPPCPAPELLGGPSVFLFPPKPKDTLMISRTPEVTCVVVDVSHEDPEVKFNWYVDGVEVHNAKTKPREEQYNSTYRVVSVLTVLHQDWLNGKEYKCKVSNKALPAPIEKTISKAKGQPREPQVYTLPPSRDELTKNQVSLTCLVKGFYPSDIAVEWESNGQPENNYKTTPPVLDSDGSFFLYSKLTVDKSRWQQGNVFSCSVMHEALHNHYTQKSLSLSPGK

B1: cAR47A6.4.2, human IgG1 chimeric antibody of anti-Trop-2 mouse monoclonal antibody AR47A6.4.2 (antibody, V domains shown)
VH: QIQLVQSGPELKKPGETVKISCKASGYTFTNYGMNWVKQAPGKGLKWMGWINTKTGEPTYAEEFKGRFAFSLETSASTAYLQINNLKKEDTATYFCGRGGYGSSYWYFDVWGAGTTVTVSS
VL: DIVMTQSHKFMSTSVGDRVSITCKASQDVSIAVAWYQQKPGQSPKVLIYSASYRYTGVPDRFTGSGSGTDFTFTISRVQAEDLAVYYCQQHYITPLTFGAGTKLELK
notes: Variable regions of AR47A6.4.2 with human IgG1 constant region (pKANTEX93), made in CHO/DG44 cells, fucose content 100%
Turning to B1, the “IC50 (read off the curve)” value in assay [1] was about 4 µg/mL; in assay [2], about 3 µg/mL. Besides, the binding result in assay [3], in assay [4] and in assay [5] was “binds” in each case.
